Measured values published in patent publication US20230137032A1 (GlaxoSmithKline, published 2023).

Key:
[1] = biological target: T1, recombinant cyno BCMA, in house material (cyno, UniProt A0A2K5UD97 4-52); experiment: Biacore T100, antibody captured on Protein A, 37C
T1 construct: also called Cyno in house BCMA

[2] = biological target: T2, recombinant human BCMA, commercial (US Biological, B0410) (human, UniProt Q02223 5-54, limits assumed); experiment: Biacore T100, antibody captured on Protein A, 37C
T2 construct: also called commercial human BCMA; Human commercial BCMA
T2 chain (looked up): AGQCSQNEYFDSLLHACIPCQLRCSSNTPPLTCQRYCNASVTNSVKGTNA

[3] = biological target: T3, recombinant human BCMA, in house material (human, UniProt Q02223 4-53, limits assumed); experiment: ProteOn SPR run 2, antibody captured on Protein A, 25C; Run 2 (Table 9)
T3 construct: also called Human in house BCMA; In house human BCMA
Description: The initial screen of CA8 chimeric and humanised variants was carried out on the ProteOn XPR36 (Biorad). The method was as follows; Protein A was immobilised on a GLC chip (Biorad, Cat No: 176-5011) by primary amine coupling, CA8 variants were then captured on this surface and recombinant human BCMA (in house or commercial US Biological, B0410) materials (run 2 only)) passed over at 256, 64, 16, 4, 1 nM with a 0 nM injection (i.e. buffer alone) used to double reference the binding curves, the buffer used is the HBS-EP buffer. 50 mM NaOH was used to regenerate the capture surface. The data was fitted to the 1:1 model using the analysis software inherent to the ProteOn XPR36. […] Both runs were carried out at 25° C.

[4] = biological target: T1, recombinant cyno BCMA, in house material; experiment: ProteOn SPR run 2, antibody captured on Protein A, 25C
[5] = biological target: T2, recombinant human BCMA, commercial (US …); experiment: as above
[6] = biological target: T4, human BCMA expressed on cells (human, UniProt Q02223 1-184); experiment: FACS on ARH77-hBCMA 10B5 transfectant cells, PE anti-human IgG, MFI
T4 construct: whole, on cells; also called human BCMA HEK293; ARH77-hBCMA 10B5 BCMA expressing transfectant cells
T4 sequence (looked up): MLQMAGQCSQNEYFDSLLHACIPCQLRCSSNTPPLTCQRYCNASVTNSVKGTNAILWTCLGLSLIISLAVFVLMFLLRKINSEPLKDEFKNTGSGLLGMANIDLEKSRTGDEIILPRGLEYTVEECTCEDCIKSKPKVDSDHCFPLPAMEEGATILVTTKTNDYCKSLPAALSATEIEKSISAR
Description: Cells were then washed with FACS buffer (PBS+0.5% BSA+0.1% sodium azide) to remove unbound antibody. Cells were incubated with a secondary PE labelled anti-human IgG antibody for 15 minutes at RT and then washed with FACS buffer to remove unbound antibody. Cells were analysed by FACS and mean fluorescence intensity (MFI) values measured to determine binding.

[7] = biological target: T3, recombinant human BCMA, in house …; experiment: ProteOn SPR run 1, antibody captured on Protein A, 25C
[8] = biological target: T1, recombinant cyno BCMA, in house material; experiment: as above

T1 sequence (A0A2K5UD97 entry or part of it): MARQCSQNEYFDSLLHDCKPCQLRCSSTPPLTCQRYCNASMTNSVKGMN

B1: CA8 humanised J7M1 (antibody, human IgG1, kappa, V domains shown)
VH: QVQLVQSGAEVKKPGSSVKVSCKASGYTFTNYWMHWVRQAPGQGLEWMGATYRGHSDTYYNQKFKGRVTITADKSTSTAYMELSSLRSEDTAVYYCARGAIYDGYDVLDNWGQGTLVTVSS
VL: DIQMTQSPSSLSASVGDRVTITCSASQDISNYLNWYQQKPGKAPKLLIYYTSNLHSGVPSRFSGSGSGTDYTLTISSLQPEDFATYYCQQYRKLPWTFGQGTKLEIKR
notes: Humanised CA8, heavy chain J7 with light chain M1, human IgG1 kappa; also called CA8 J7M1
For B1, the Kd [1] was 1.06 nM and the Kd [2] was 0.056 nM.

B2: CA8 humanised J8M1 (antibody, human IgG1, kappa, V domains shown)
VH: QVQLVQSGAEVKKPGSSVKVSCKASGYTFTNYWMHWVRQAPGQGLEWMGATYRGHSDTYYNQKFKGRVTITADKSTSTAYMELSSLRSEDTAVYYCTRGAIYDGYDVLDNWGQGTLVTVSS
VL: DIQMTQSPSSLSASVGDRVTITCSASQDISNYLNWYQQKPGKAPKLLIYYTSNLHSGVPSRFSGSGSGTDYTLTISSLQPEDFATYYCQQYRKLPWTFGQGTKLEIKR
notes: Humanised CA8, heavy chain J8 with light chain M1, human IgG1 kappa; also called CA8 J8M1
Binder B2 has a Kd [1] of 1.28 nM and a Kd [2] of 0.05 nM.

B3: CA8 humanised J6M1 (antibody, human IgG1, kappa, V domains shown)
VH: QVQLVQSGAEVKKPGSSVKVSCKASGGTFSNYWMHWVRQAPGQGLEWMGATYRGHSDTYYNQKFKGRVTITADKSTSTAYMELSSLRSEDTAVYYCARGAIYDGYDVLDNWGQGTLVTVSS
VL: DIQMTQSPSSLSASVGDRVTITCSASQDISNYLNWYQQKPGKAPKLLIYYTSNLHSGVPSRFSGSGSGTDYTLTISSLQPEDFATYYCQQYRKLPWTFGQGTKLEIKR
notes: Humanised CA8, heavy chain J6 with light chain M1, human IgG1 kappa; also called CA8 J6M1
In the case of B3, the Kd [3] is reported as 0.124 nM, the Kd [4] is reported as 5.3 nM and the Kd [5] is reported as 0.063 nM. B3: binds [6].

B4: S307118G03 H5L0 (antibody, human IgG1, kappa, V domains shown)
VH: QVQLVQSGAEVKKPGSSVKVSCKASGYTFTDYYMKWVRQAPGQGLEWIGEIYPNNGGITYNQKFKGRATLTVDKSTSTAYMELSSLRSEDTAVYYCANGYEFDYWGQGTLVTVSS
VL: DIQMTQSPSSLSASVGDRVTITCSASQGISNYLNWYQQKPGKAPKLLIYYTSSLHSGVPSRFSGSGSGTDFTLTISSLQPEDFATYYCQQYSKLPWTFGQGTKLEIKR
notes: Humanised, human IgG1 kappa; also called S307118G03 humanised H5L0
B4: no binding [4].

B5: CA8 humanised J8M2 (antibody, human IgG1, kappa, V domains shown)
VH: QVQLVQSGAEVKKPGSSVKVSCKASGYTFTNYWMHWVRQAPGQGLEWMGATYRGHSDTYYNQKFKGRVTITADKSTSTAYMELSSLRSEDTAVYYCTRGAIYDGYDVLDNWGQGTLVTVSS
VL: DIQLTQSPSSLSASVGDRVTITCSASQDISNYLNWYQQKPGKAPELVIYYTSNLHSGVPSRFSGSGSGTDYTLTISSLQPEDFATYYCQQYRKLPWTFGQGTKLEIKR
notes: Humanised CA8, heavy chain J8 with light chain M2, human IgG1 kappa; also called CA8 J8M2
Binder B5 has a Kd [1] of 1.32 nM and a Kd [2] of 0.057 nM.

B6: CA8 humanised J7M0 (antibody, human IgG1, kappa, V domains shown)
VH: QVQLVQSGAEVKKPGSSVKVSCKASGYTFTNYWMHWVRQAPGQGLEWMGATYRGHSDTYYNQKFKGRVTITADKSTSTAYMELSSLRSEDTAVYYCARGAIYDGYDVLDNWGQGTLVTVSS
VL: DIQMTQSPSSLSASVGDRVTITCSASQDISNYLNWYQQKPGKAPKLLIYYTSNLHSGVPSRFSGSGSGTDFTLTISSLQPEDFATYYCQQYRKLPWTFGQGTKLEIKR
notes: Humanised CA8, heavy chain J7 with light chain M0, human IgG1 kappa; also called CA8 J7M0
B6 showed a Kd [1] of 1.14 nM and a Kd [2] of 0.064 nM.

B7: S307118G03 humanised H2L1 (antibody, human IgG1, kappa, V domains shown)
VH: QVQLVQSGAEVKKPGSSVKVSCKASGYTFTDYYMKWVRQAPGQGLEWMGEIYPNNGGITYNQKFKGRVTITADKSTSTAYMELSSLRSEDTAVYYCANGYEFVYWGQGTLVTVSS
VL: DIQMTQSPSSLSASVGDRVTITCSASQGISNYLNWYQQKPGKAPKLLIYYTSSLHSGVPSRFSGSGSGTDYTLTISSLQPEDFATYYCQQYSKLPWTFGQGTKLEIKR
notes: Humanised, human IgG1 kappa
With B7 the Kd [7] was 6.37 nM and the binding result [8] was “no binding”.

B8: S307118G03 humanised H3L0 (antibody, human IgG1, kappa, V domains shown)
VH: QVQLVQSGAEVKKPGSSVKVSCKASGYTFTDYYMKWVRQAPGQGLEWIGEIYPNNGGITYNQKFKGRATLTVDKSTSTAYMELSSLRSEDTAVYYCANGYEFVYWGQGTLVTVSS
VL: DIQMTQSPSSLSASVGDRVTITCSASQGISNYLNWYQQKPGKAPKLLIYYTSSLHSGVPSRFSGSGSGTDFTLTISSLQPEDFATYYCQQYSKLPWTFGQGTKLEIKR
notes: Humanised, human IgG1 kappa
In the case of B8, the Kd [7] is reported as 5.31 nM and the binding result [8] is reported as “no binding”.

B9: S307118G03 humanised H4L1 (antibody, human IgG1, kappa, V domains shown)
VH: QVQLVQSGAEVKKPGSSVKVSCKASGYTFTDYYMKWVRQAPGQGLEWMGEIYPNNGGITYNQKFKGRVTITADKSTSTAYMELSSLRSEDTAVYYCADGYEFVYWGQGTLVTVSS
VL: DIQMTQSPSSLSASVGDRVTITCSASQGISNYLNWYQQKPGKAPKLLIYYTSSLHSGVPSRFSGSGSGTDYTLTISSLQPEDFATYYCQQYSKLPWTFGQGTKLEIKR
notes: Humanised, human IgG1 kappa
B9: no binding (tested: up to 256 nM) [7]; no binding [8].

B10: CA8 humanised J6M2 (antibody, human IgG1, kappa, V domains shown)
VH: QVQLVQSGAEVKKPGSSVKVSCKASGGTFSNYWMHWVRQAPGQGLEWMGATYRGHSDTYYNQKFKGRVTITADKSTSTAYMELSSLRSEDTAVYYCARGAIYDGYDVLDNWGQGTLVTVSS
VL: DIQLTQSPSSLSASVGDRVTITCSASQDISNYLNWYQQKPGKAPELVIYYTSNLHSGVPSRFSGSGSGTDYTLTISSLQPEDFATYYCQQYRKLPWTFGQGTKLEIKR
notes: Humanised CA8, heavy chain J6 with light chain M2, human IgG1 kappa; also called CA8 J6M2
Work on B10 yielded a Kd [3] of 0.202 nM, a Kd [4] of 6.86 nM and a Kd [5] of 0.071 nM. B10: binds [6].

B11: CA8 humanised J9M1 (antibody, human IgG1, kappa, V domains shown)
VH: QVQLVQSGAEVKKPGSSVKVSCKGSGYTFTNYWMHWVRQAPGQGLEWIGATYRGHSDTYYNQKFKGRATLTADTSTSTAYMELSSLRSEDTAVYYCTRGAIYDGYDVLDNWGQGTLVTVSS
VL: DIQMTQSPSSLSASVGDRVTITCSASQDISNYLNWYQQKPGKAPKLLIYYTSNLHSGVPSRFSGSGSGTDYTLTISSLQPEDFATYYCQQYRKLPWTFGQGTKLEIKR
notes: Humanised CA8, heavy chain J9 with light chain M1, human IgG1 kappa; also called CA8 J9M1
With B11 the Kd [1] was 0.442 nM, the Kd [2] was 0.018 nM and the binding result [6] was “binds”.

B12: CA8 humanised J8M0 (antibody, human IgG1, kappa, V domains shown)
VH: QVQLVQSGAEVKKPGSSVKVSCKASGYTFTNYWMHWVRQAPGQGLEWMGATYRGHSDTYYNQKFKGRVTITADKSTSTAYMELSSLRSEDTAVYYCTRGAIYDGYDVLDNWGQGTLVTVSS
VL: DIQMTQSPSSLSASVGDRVTITCSASQDISNYLNWYQQKPGKAPKLLIYYTSNLHSGVPSRFSGSGSGTDFTLTISSLQPEDFATYYCQQYRKLPWTFGQGTKLEIKR
notes: Humanised CA8, heavy chain J8 with light chain M0, human IgG1 kappa; also called CA8 J8M0
With B12 the Kd [1] was 1.08 nM and the Kd [2] was 0.052 nM.

B13: CA8 humanised J9M2 (antibody, human IgG1, kappa, V domains shown)
VH: QVQLVQSGAEVKKPGSSVKVSCKGSGYTFTNYWMHWVRQAPGQGLEWIGATYRGHSDTYYNQKFKGRATLTADTSTSTAYMELSSLRSEDTAVYYCTRGAIYDGYDVLDNWGQGTLVTVSS
VL: DIQLTQSPSSLSASVGDRVTITCSASQDISNYLNWYQQKPGKAPELVIYYTSNLHSGVPSRFSGSGSGTDYTLTISSLQPEDFATYYCQQYRKLPWTFGQGTKLEIKR
notes: Humanised CA8, heavy chain J9 with light chain M2, human IgG1 kappa; also called CA8 J9M2
B13 was tested, and the Kd [1] was 0.515 nM.

B14: CA8 humanised J7M2 (antibody, human IgG1, kappa, V domains shown)
VH: QVQLVQSGAEVKKPGSSVKVSCKASGYTFTNYWMHWVRQAPGQGLEWMGATYRGHSDTYYNQKFKGRVTITADKSTSTAYMELSSLRSEDTAVYYCARGAIYDGYDVLDNWGQGTLVTVSS
VL: DIQLTQSPSSLSASVGDRVTITCSASQDISNYLNWYQQKPGKAPELVIYYTSNLHSGVPSRFSGSGSGTDYTLTISSLQPEDFATYYCQQYRKLPWTFGQGTKLEIKR
notes: Humanised CA8, heavy chain J7 with light chain M2, human IgG1 kappa; also called CA8 J7M2
For B14, the Kd [1] was 1.29 nM and the Kd [2] was 0.057 nM.
